Test results: patent US9804152B1, “Human ex vivo skin model and its use in methods of identifying modulators of skin inflammation” (The Procter & Gamble Company, priority 2012, dated 2017)
Marks after values point to notes of the source that are not given here.

Assays:
Format in all cases: cell-based
[1] = tested on: ex vivo human skin sample; assay: Inducers of inflammation: inflammation marker secreted into the media by ex vivo skin samples (ELISA); conditions: 20 ng/ml IL-22 only, day 4; untreated about 5,800 pg/ml
Description: (§1) This Example describes the materials and methods used in preparing ex vivo skin samples for use according to the methods disclosed herein. Materials used in preparation of ex vivo skin samples for use in the disclosed screening methods included: Dulbecco's Modified Eagle Medium (DMEM) plus Glutamax, antibiotic and antimycotics, 1× phosphate-buffered saline (PBS), 150×15 mm sterile culture dishes, sterile gauze 4×4, disposable safety scalpels, 4 mm disposable biopsy punch, 6-well cell-culture inserts, disinfected tweezers, cotton-tipped applicators, 6-well culture plates, ruled, disinfected cutting mat (12×12), scraper handle, tissue freezing medium, biopsy cassettes, frozen-tissue freezing vessels, 10% formalin, shipping containers for fixed tissue, and biohazard/sharps containers. Media was prepared in advance of the arrival of ex vivo skin. The skin arrived with the dermis (fat) side down on sterile DMEM soaked gauze in a sterile culture dish. The culture dish was taped shut and in a biohazard zip-lock baggie on an ice pack in a secondary container.
(§2) On arrival, the skin was removed from the bag and soaked in 3×DMEM media (3× refers to concentration of antibiotic and antimycotics) and stored at 4° C. for 1 hour. After 1 hour, the skin was removed from the 3×DMEM and rinsed with sterile 1×PBS. The skin was placed in a clean culture dish containing gauze soaked with 1×DMEM. The sample was put in culture the same day as arrival. If necessary, however, the ex vivo skin samples can be stored at 4° C. overnight.
In preparation for culture, the following was performed: on a cutting mat, the skin was flipped over so that the epidermis was down and the subcutis (fat) was exposed. The fat was removed with a disposable scalpel by carefully grasping one corner of the skin with sterile serrated forceps and scraping the fat away with the blade held at a 45° angle to the skin. After the fat was removed, the surgical edges were cut off with a scalpel using a scraper as a straight edge guide and to hold the skin in place. […]

[2] = tested on: ex vivo human skin sample; assay: Histological analysis of ex vivo skin samples; conditions: IL-22 at 20 ng/mL, biopsied six days after treatment, vs untreated sample at 24 hours
Description: The first sample was analyzed 24 hours after being collected (i.e., biopsied) from an untreated ex vivo skin sample, and the second sample was collected (i.e., biopsied) from an ex vivo skin sample six days after the skin sample was treated with IL-22 at 20 ng/mL. […] Also consistent was the effect of 10 μM clobetasol in inhibiting inflammation, as measured by a reduction in marker gene expression. In particular, S100A7 was induced about 34-fold relative to untreated skin samples, with clobetasol leading to about 26-fold increase in expression relative to the untreated control. For IL-8, induction was about 16-fold and clobetasol reduced that to about 3-fold. For IL-6, induction was about 6-fold and clobetasol inhibited that value to about 0.3-fold relative to control values. For DEFB4, induction was about 800-fold and clobetasol reduced that increase to about 200-fold relative to controls.

[3] = tested on: ex vivo human skin sample; assay: Inducers of inflammation: inflammation marker gene expression in ex vivo skin samples (PCR); conditions: for CALML5 Up-Down Regulation (relative to control) / DEFB4 Up-Down Regulation (relative to control) / FLG Up-Down Regulation (relative to control) / IL-6 Up-Down Regulation (relative to control) / IL-8 Up-Down Regulation (relative to control) / KRT6A Up-Down Regulation (relative to control) / KRT10 Up-Down Regulation (relative to control) / S100A7 Up-Down Regulation (relative to control) / TNF-α Up-Down Regulation (relative to control): IL-17 or IL-22 alone, 96 hours
Description: as §1, §2
In preparation for culture, the following was performed: on a cutting mat, the skin was flipped over so that the epidermis was down and the subcutis (fat) was exposed. The fat was removed with a disposable scalpel by carefully grasping one corner of the skin with sterile serrated forceps and scraping the fat away with the blade held at a 45° angle to the skin. After the fat was removed, the surgical edges were cut off with a scalpel using a scraper as a straight edge guide and to hold the skin in place. Using the scraper as a guide, the skin was cut into 1.25 cm (2×2 squares on grid) wide strips using a ruler to measure the width. The strip was rinsed in a 100 mm culture dish containing 1×PBS. The strips were cut into 1.25 cm^2 squares and placed in a 100 mm culture dish on 1×DMEM-soaked gauze until they were put into culture 30 minutes later.
Culture plates were prepared that included 2.5 ml of media or media with treatment (e.g., a candidate modulator, an inflammation inducer, and/or an inhibitor of inflammation) in each well of a 6-well plate. One Millicell culture insert was added to each well and 100 μl of 1× DMEM was put in the center of each insert membrane. Squares of skin tissue were selected randomly and placed into each of the inserts (one piece of skin per insert), on top of the media on the membrane. The plates were stored at 33° C., with fresh media changes daily. As a control, baseline tissue measurements were collected from excess waste (cryogenics were used for snap-freezing). Baseline biopsy collection included two 4 mm punches for an MTT colorimetric assay (described below); one 4 mm punch was snap-frozen in OCT tissue compound for fresh histology; one 4 mm punch was fixed in 10% formalin and sent out for paraffin embedding. Expression measurements of inflammation marker genes were performed using PCR and primers appropriate to the known sequence of the gene(s) of interest.
Culturing and treatment of the ex vivo skin model comprised replicates of n=5. Before experimental treatment, compounds (e.g., a candidate modulator, an inflammation inducer, or a suppressor of inflammation) were solubilized in appropriate solvents (including PBS, media, alcohol, and DMSO). Appropriate dilutions were made for treatment and 15 ml of media was used per plate per day for treatment, with 2.5 ml of media per well under the cell culture insert. Media was pre-warmed and changed every day during the experiment.

B1: IL-22: pro-inflammatory cytokine used as inducer of inflammation; also inducer of cell proliferation (protein, UniProt Q9GZX6 34-179, looked up)
Interleukin-22: APISSHCRLDKSNFQQPYITNRTFMLAKEASLADNNTDVRLIGEKLFHGVSMSERCYLMKQVLNFTLEEVLFPQSDRFQPYMQEVVPFLARLSNRLSTCHIEGDDLHIQRNVQKLKDTVKKLGESGEIKAIGELDLLFMSLRNACI
IL-8 secreted into the media [1]: about 5,500 pg/ml
histology: skin cell proliferation (basal layer) [2]: clearly exhibits a proliferative basal layer
induction of inflammation in ex vivo skin samples, in words [3]: shown to induce inflammation in ex vivo skin samples
DEFB4 expression relative to an untreated ex vivo skin sample ([3]; 2 ng/ml IL-22): 0.00
KRT10 fold-expression level relative to an untreated ex vivo skin sample ([3]; 2 ng/ml IL-22): about 0.00 fold
DEFB4 expression relative to an untreated ex vivo skin sample ([3]; 20 ng/ml IL-22): about 3.00
KRT10 fold-expression level relative to an untreated ex vivo skin sample ([3]; 20 ng/ml IL-22): about −3.00 fold
DEFB4 expression relative to an untreated ex vivo skin sample ([3]; 200 ng/ml IL-22): about 20.00
KRT10 fold-expression level relative to an untreated ex vivo skin sample ([3]; 200 ng/ml IL-22): about −18.00 fold
CALML5 Up-Down Regulation (relative to control) ([3]; 2 ng/ml): 1.17*
DEFB4 Up-Down Regulation (relative to control) ([3]; 2 ng/ml): −1.03
FLG Up-Down Regulation (relative to control) ([3]; 2 ng/ml): 1.28
IL-6 Up-Down Regulation (relative to control) ([3]; 2 ng/ml): 1.35
IL-8 Up-Down Regulation (relative to control) ([3]; 2 ng/ml): 1.71*
KRT6A Up-Down Regulation (relative to control) ([3]; 2 ng/ml): −1.16
KRT10 Up-Down Regulation (relative to control) ([3]; 2 ng/ml): 1.40
S100A7 Up-Down Regulation (relative to control) ([3]; 2 ng/ml): 1.02
TNF-α Up-Down Regulation (relative to control) ([3]; 2 ng/ml): 1.95*
CALML5 Up-Down Regulation (relative to control) ([3]; 20 ng/ml): −2.29*
DEFB4 Up-Down Regulation (relative to control) ([3]; 20 ng/ml): 2.69*
FLG Up-Down Regulation (relative to control) ([3]; 20 ng/ml): −10.55*
IL-6 Up-Down Regulation (relative to control) ([3]; 20 ng/ml): 1.30
IL-8 Up-Down Regulation (relative to control) ([3]; 20 ng/ml): 1.43
KRT6A Up-Down Regulation (relative to control) ([3]; 20 ng/ml): 1.32
KRT10 Up-Down Regulation (relative to control) ([3]; 20 ng/ml): −2.69*
S100A7 Up-Down Regulation (relative to control) ([3]; 20 ng/ml): 2.04*
TNF-α Up-Down Regulation (relative to control) ([3]; 20 ng/ml): 1.56*
CALML5 Up-Down Regulation (relative to control) ([3]; 200 ng/ml): −4.61*
DEFB4 Up-Down Regulation (relative to control) ([3]; 200 ng/ml): 20.23*
FLG Up-Down Regulation (relative to control) ([3]; 200 ng/ml): −13.37*
IL-6 Up-Down Regulation (relative to control) ([3]; 200 ng/ml): 1.31
IL-8 Up-Down Regulation (relative to control) ([3]; 200 ng/ml): 1.72*
KRT6A Up-Down Regulation (relative to control) ([3]; 200 ng/ml): 1.08
KRT10 Up-Down Regulation (relative to control) ([3]; 200 ng/ml): −17.54*
TNF-α Up-Down Regulation (relative to control) ([3]; 200 ng/ml): 1.33*
